How the values were obtained:
CLEC-2 (Homo sapiens) = CLEC-2 (Homo sapiens) (UniProt Q9P126); settings: cited from earlier work
[1] = target: T1, CLEC-2 (C-type lectin-like receptor 2) (Homo sapiens, UniProt Q9P126); assay: SPR (Biacore T200, CLEC-2 amine-coupled to CM5 chip, equilibrium fit); assay type: binding
T1 construct: gene CLEC1B; recombinant CLEC-2
T1 sequence (Q9P126 whole entry): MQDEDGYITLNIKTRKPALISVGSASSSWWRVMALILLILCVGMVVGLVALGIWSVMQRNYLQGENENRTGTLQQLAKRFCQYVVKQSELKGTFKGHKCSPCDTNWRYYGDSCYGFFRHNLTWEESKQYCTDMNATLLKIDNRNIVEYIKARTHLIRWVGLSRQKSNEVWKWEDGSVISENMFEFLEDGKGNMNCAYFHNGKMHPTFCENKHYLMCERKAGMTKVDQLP

Sequence of CLEC-2 (Homo sapiens) (Q9P126 whole entry): as above

For podoplanin (from UniProt Q86YL7), which Kd (CLEC-2 (Homo sapiens)) is on record?
Its Kd is 24.5 µM.

For `O=C(NCCNC(=O)c1cc([N+](=O)[O-])ccc1O)c1ccccc1` [2CP], which Kd [1] is on record?
Its Kd is 33.2 ± 1.9 µM.
